Assay [1] has as its target MUC1 peptide-biotin (cat#353951, American Peptide Company). As to the kind of experiment: ELISA at 2 ug/ml mAb, MUC1 peptide-biotin on NeutrAvidin; PBS background 0.08. Background: ELISA stands for enzyme-linked immunosorbent assay.
Assay [2] shares this target. The assay is described as follows: ELISA at 2 ug/ml mAb (IgM), MUC1 peptide-biotin on NeutrAvidin; PBS background 0.12.

B1: human anti-GD2 monoclonal antibody 31F9 (antibody, human IgG1, V domains shown)
VH: QVQLLESGAEVKKPGASVKVSCEASGYTFTSSDINWVRQATGQGLEWMGWMNPNSGNTGYAQKFQGRVTMTRNTSISTAYMELSSLRSEDTAVYYCARERPRRRGGGFDIWGQGTMVTVSS
VL: DIRMTQSPSSLSASVGDRVTITCRASQGISNYLAWYQQKPGKVPKFLIYAASTLQSGVPSRFSGSGSGTDFTLTISSLQPEDVATYYCQKYNSAPWTFGQGTKVEIK
In turn, B1 gave an ELISA signal (unit not given) in assay [1] of 0.08.

B2: human anti-GD2 monoclonal antibody 2E12 (antibody, human IgM, V domains shown)
VH: QVQLLESGAEVKKPGASVKVSCKASGYTFTSYAMHWVRQAPGQRLEWMGWINAGNGNTIYSQKFQARVTITRDTSASTAYMELSSLRSEDTAVYYCARWVGGVASYFDYWGQGTLVTVSS
VL: EIVLTQSPLSLSVTPGEPASISCRSSQSLLHRNGYNYFDWYLQQPGQSPQLLIYLGSNRASGVPDRFSGSGSGTDFTLKISRVEAEDVGVYYCMQALQTPYTFGQGTKLEIK
B2 displayed an ELISA signal (unit not given) in assay [2] of 0.09.

(Values after patent publication US20150353645A1.)
